Measured values as given in US11028172 (LEPU BIOPHARMA, dated 2021).

Key:
[1] = target: T1, biotin-labeled human TIGIT protein (human, UniProt Q495A1 22-141, biotin-labeled (sites not given)); assay: ELISA blocking assay: CD155-hFc coated, biotin-labeled human TIGIT, antibody titrated
T1 construct: also called recombinant human TIGIT
T1 sequence (looked up): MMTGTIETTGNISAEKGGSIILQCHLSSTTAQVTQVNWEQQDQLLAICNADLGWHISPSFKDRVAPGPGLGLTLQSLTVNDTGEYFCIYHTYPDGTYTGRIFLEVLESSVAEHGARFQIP
Experimental: To evaluate the blocking effects of Hu02 and Hu06 on recombinant human TIGIT to bind to its receptor CD155, an ELISA based receptor blocking assay was used.
Briefly, microtiter plates were coated with human CD155-hFc protein at 5 µg/ml in PBS, 100 µl/well at 4° C. overnight, then blocked with 150 µl/well of 1% BSA. 50 µl biotin-labeled human TIGIT protein and 3-fold dilutions of Hu02 and Hu06 antibodies starting from 10 µg/ml at 50 µl were added to each well and incubated for 1 hour at 37° C. The plates were washed with PBS/Tween and then incubated with Streptavidin-HRP for 10 mins at 37° C. After washing, the plates were developed with TMB substrate and analyzed by spectrophotometer at OD 450 nm.

mouse TIGIT protein = target: T2, mouse TIGIT protein (mouse, UniProt P86176 29-148, limits assumed); assay: ELISA, mouse TIGIT coated at 0.5 µg/ml
T2 construct: Recombinant protein coated on the plate
T2 sequence (looked up): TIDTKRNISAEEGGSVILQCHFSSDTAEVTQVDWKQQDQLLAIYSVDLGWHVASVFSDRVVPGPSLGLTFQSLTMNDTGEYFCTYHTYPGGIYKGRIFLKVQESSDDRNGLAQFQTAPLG
Experimental: (§1) ELISA testing was carried out to evaluate the binding of chimeric antibodies to human, mouse, rat, and cyno TIGIT, respectively. Briefly, microtiter plates were coated with human, mouse, rat and cyno TIGIT proteins at 0.5 µg/ml in PBS, 100 µl/well at 4° C. overnight, then blocked with 150 µl/well of 1% BSA. Three-fold dilutions of chimeric antibodies or biotinylated chimeric antibodies starting from 10 µg/ml were added to each well and incubated for 1 hour at 37° C. The plates were washed with PBS/Tween and then incubated with Goat-anti-human IgG Fab antibody conjugated with Horse Radish Peroxidase (HRP) or Streptavidin-HRP for 30 mins at 37° C. After washing, the plates were developed with TMB substrate and analyzed by spectrophotometer at OD 450 nm.

human TIGIT-His protein [2] = target: T3, human TIGIT-His protein (human, UniProt Q495A1 22-141); assay: ELISA, plate coated with human TIGIT-His, anti-human IgG-HRP, OD 450nm; unit taken from the axis Log[Conc.]/ng/ml
T3 construct: Recombinant protein; also called human TIGIT-his tag; hTIGIT-His
T3 sequence (looked up): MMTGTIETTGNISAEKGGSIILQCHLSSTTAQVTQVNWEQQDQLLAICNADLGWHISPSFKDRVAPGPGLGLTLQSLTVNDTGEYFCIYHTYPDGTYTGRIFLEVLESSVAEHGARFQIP
Experimental: (§2) To evaluate the antigen binding activity, the humanized antibodies were subjected to ELISA test. Briefly, microtiter plates were coated with human TIGIT-his protein at 0.5 µg/ml in PBS, 100 µl/well at 4° C. overnight, then blocked with 150 µl/well of 1% BSA. Three-fold dilutions of humanized antibodies starting from 3 µg/ml were added to each well and incubated for 1 hour at 37° C. The plates were washed with PBS/Tween and then incubated with Goat-anti-human IgG antibody conjugated with Horse Radish Peroxidase (HRP) for 30 mins at 37° C. After washing, the plates were developed with TMB substrate and analyzed by spectrophotometer at OD 450 nm.

human TIGIT-His protein [3] = target: T3, human TIGIT-His protein; assay: ELISA, human TIGIT-His coated
Experimental: To evaluate the binding activity of 76D12B10, the chimeric mAb was subjected to ELISA test. Briefly, microtiter plates were coated with human TIGIT-His protein at 0.5 µg/ml in PBS, 100µl/well at 4° C. overnight, then blocked with 150 µl/well of 1% BSA. Three-fold dilutions of 76D12B10 antibodies starting from 10 µg/ml were added to each well and incubated for 1 hour at 37° C. The plates were washed with PBS/Tween and then incubated with Goat-anti-human IgG antibody conjugated with Horse Radish Peroxidase (HRP) for 30 mins at 37° C. After washing, the plates were developed with TMB substrate and analyzed by spectrophotometer at OD 450 nm.
as §1

[4] = target: T4, human TIGIT expressed on cells (human, UniProt Q495A1 22-244); assay: cell-based or functional assay
T4 sequence (looked up): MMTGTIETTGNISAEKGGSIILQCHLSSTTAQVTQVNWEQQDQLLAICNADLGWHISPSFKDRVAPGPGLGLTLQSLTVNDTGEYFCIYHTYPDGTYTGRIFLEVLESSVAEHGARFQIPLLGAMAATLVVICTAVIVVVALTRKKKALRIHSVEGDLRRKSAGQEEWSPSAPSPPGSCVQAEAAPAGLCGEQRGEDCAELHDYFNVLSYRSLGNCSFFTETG

human TIGIT-His protein [5] = target: T3, human TIGIT-His protein; assay: SPR (Biacore T200), antibody captured on CM5 chip, TIGIT-His as analyte
Experimental: The binding of the 76D12B10 antibodies to recombinant TIGIT protein (human TIGIT-his tag) was tested with BIACORE™ using a capture method. The 76D12B10 mAbs was captured using CM5 chip. A series dilution of human TIGIT-his tag protein was injected over captured antibody for 1 min at a flow rate of 30 µl/min. The antigen was allowed to dissociate for 300 s. All the experiment were carried out on a Biacore T200. Data analysis was carried out using Biacore T200 evaluation software.

human TIGIT-His protein [6] = target: T3, human TIGIT-His protein; assay: ELISA, plate coated with human TIGIT-His, anti-human IgG-HRP, OD 450nm; unit taken from the axis Log[Conc.]/ng/ml; remark: listed apart in the source
Experimental: as §2, with “Hu02 and Hu06” for “the humanized antibodies”, “0.5 hour” for “30 mins”

human TIGIT-His protein [7] = target: T3, human TIGIT-His protein; assay: SPR (Biacore) affinity ranking, human TIGIT-His

IC50 [1]: 1110 ng/mL
binding result (mouse TIGIT protein): no binding
EC50 (human TIGIT-His protein [2]): 9.37 ng/mL
EC50 (human TIGIT-His protein [3]): 8.57 ng/mL
NFAT luciferase production, EC50 [4]: 1.24 nM
Kd (human TIGIT-His protein [5]): 0.259 nM
koff (human TIGIT-His protein [5]): 0.000326 s⁻¹
kon (human TIGIT-His protein [5]): 1.26e+06 M⁻¹ s⁻¹
EC50 (human TIGIT-His protein [6]): 7.6 ng/mL
Kd (human TIGIT-His protein [7]): 0.0161 nM
koff (human TIGIT-His protein [7]): 0.000182 s⁻¹
kon (human TIGIT-His protein [7]): 1.13e+07 M⁻¹ s⁻¹
B1: 76D12B10 chimeric antibody (antibody, V domains shown)
VH: DVQLQESGPGMVKPSQSLSLTCTATGYSITSGYDWHWIRHFPGKKLEWMGFIRDSGSTVYNPSLKGRISITHDTSKNRFFLKLNSVTPEDTATYFCARGLFWYFDVWGTGTTVTVSS
VL: DIQMTQSPASLSASVGETVTITCRTSENIFSYLAWYQQKQGNSPQLLVHNTKTLAEGVPSRFSGSGSGTQFSLKISNLQPEDFGSYYCQHHYGNPLTFGAGTKLELK
notes: Mouse variable regions of hybridoma clone 76D12B10; tested as chimeric mAb (detected with anti-human IgG); also called 76D12B10-Chimera; 76D12B10 chimera
